In US20090117169A1 one finds nuclear β-catenin/lamin A/C ratio in fractionated, LiCl-treated A7r5 cells, inhibition of β-catenin activation of Topflash (TCF-luciferase reporter) in A7r5 cells and LiCl-stimulated TCF/β-catenin transcriptional activation (Topflash) in MASMCs after Fat1 knockdown (% higher than control siRNA) data, which are given here for 3 substances.

Holding throughout (assay): cell-based or functional assay
The target of assay [1] is endogenous β-catenin in rat vascular smooth muscle cells (RASMCs, A7r5) (rat) (UniProt Q9WU82).
Assay [2] deals with Myc-tagged β-catenin.
Assay [3] addresses endogenous β-catenin in mouse aortic smooth muscle cells (MASMCs) (mouse) (UniProt Q02248).

Chain of UniProt Q9WU82 (Q9WU82 2-781): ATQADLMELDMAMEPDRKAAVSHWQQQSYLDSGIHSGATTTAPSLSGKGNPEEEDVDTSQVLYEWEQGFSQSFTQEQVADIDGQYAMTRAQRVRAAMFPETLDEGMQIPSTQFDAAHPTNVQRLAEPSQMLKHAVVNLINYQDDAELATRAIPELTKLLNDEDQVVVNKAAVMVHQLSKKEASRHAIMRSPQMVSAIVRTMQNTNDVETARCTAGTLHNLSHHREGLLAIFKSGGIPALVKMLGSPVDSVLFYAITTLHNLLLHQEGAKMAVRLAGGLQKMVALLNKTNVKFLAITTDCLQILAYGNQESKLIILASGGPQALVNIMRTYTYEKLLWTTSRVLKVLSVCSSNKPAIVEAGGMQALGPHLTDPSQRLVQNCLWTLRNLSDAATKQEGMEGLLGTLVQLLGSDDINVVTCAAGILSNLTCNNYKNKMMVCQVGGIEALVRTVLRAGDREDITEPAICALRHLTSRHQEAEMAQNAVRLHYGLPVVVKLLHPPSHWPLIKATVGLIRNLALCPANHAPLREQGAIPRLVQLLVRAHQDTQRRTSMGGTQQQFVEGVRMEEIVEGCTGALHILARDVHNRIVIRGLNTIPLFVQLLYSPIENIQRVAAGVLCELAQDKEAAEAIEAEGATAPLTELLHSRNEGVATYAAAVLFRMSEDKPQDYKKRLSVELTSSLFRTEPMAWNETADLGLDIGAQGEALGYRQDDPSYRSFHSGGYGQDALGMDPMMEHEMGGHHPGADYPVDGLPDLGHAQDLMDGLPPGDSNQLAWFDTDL

Regarding “IL2R-Fat1IC (from UniProt P01589 22-259)”, the nuclear β-catenin/lamin A/C ratio in fractionated, LiCl-treated A7r5 cells in assay [1] stood at 0.8. In addition, the inhibition of β-catenin activation of Topflash (TCF-luciferase reporter) in A7r5 cells in assay [2] was 40%. As for “endogenous Fat1 in mouse aortic smooth muscle cells (MASMCs)”, in assay [3], the LiCl-stimulated TCF/β-catenin transcriptional activation (Topflash) in MASMCs after Fat1 knockdown (% higher than control siRNA) amounted to 30. In turn, FLAG-tagged N-cadherin (receptor) registered an inhibition of β-catenin activation of Topflash (TCF-luciferase reporter) in A7r5 cells in assay [2] of 55%.
